The text below walks through data of patent US20100303814A1 (VIVENTIA BIOTECHNOLOGIES, published 2010).

A word on the Kd: it is the concentration at which binding is half-saturated. Higher therefore signals weaker binding.

Where no end group is shown, it is not given here. The star is where a group is joined. Biotin = O=C1N[C@H]2[C@H](CS[C@H]2CCCCC(=O)*)N1

Experiment [1] addresses T1, antigen bound by VB1-213 on A-375 tumor cells.
T1 construct: Placeholder target for the KD measured on whole A-375 cells; also called A-375 carcinoma cells
Put plainly: flow cytometry saturation curve on A-375 cells, Lineweaver-Burk method. Here is the method:
Flow cytometry was used to assess binding affinity (C. A. Benedict, A. J. MacKrell, W. F. Anderson, J. Immunol. Methods 201, 223 (1997)). A range of antibody concentrations were tested against a fixed number of tumor cells (A-375) for 2 hours to obtain a saturation curve. Values and graphical analysis were generated using Sigma Plot (Jandel Scientific, San Rafael, Calif.). The inverse of the determined median fluorescence was plotted as a function of the inverse of antibody concentration to determine KD by the Lineweaver-Burk method.
Background: Flow cytometry measures light scatter and fluorescence of single cells or particles in a stream.

Experiment [2] concerns the target T2, PSPep1 (Biotin TARIRAVGLLTVISK) (human).
T2 construct: Synthetic peptide, part of the immunogen of the commercial anti-PSCA antibodies, 1823.9 amu
T2 peptide: Biotin-TARIRAVGLLTVISK
Description: ELISA on peptide-coated plate. Here is the method: (§1) Peptide solutions were diluted 1-in-100 with Hank's buffered saline solution (HBSS) containing 0.5% formaldehyde. 100 μL of diluted peptide solution was distributed to each well in a 96-well plate. The plates were incubated at room temperature for 1 hour. The supernatant was removed and the plates were placed uncovered in a 37° C. incubator for 16-18 hours. The peptide-coated plates were placed in plastic bags and stored at 2-8° C. until required.
(§2) The plates were washed as previously described with the wash buffer (PBS containing 0.5% Tween 20). The plates were incubated with 1:6000 dilution of anti-human IgG-HRP for one hour at room temperature. The plates were washed as previously described. 100 μL of TMB substrate (TMB peroxidase substrate KPL cat# 50-76-00) was added to each well and incubated for 5-10 minutes in the dark. The reaction was terminated by adding 100 μL of 1M phosphoric acid to each well. The optical density was measured at 450 nm using an ELISA plate reader.
(In an ELISA, binding on a coated surface is turned into a signal by an enzyme label.)

Experiment [3] concerns the target T3, PSPep3 (Biotin LCNASGAHALQ), negative peptide (human).
T3 construct: Synthetic peptide derived from PSCA, 1306.59 amu; also called PSPep3 (Negative)
T3 peptide: Biotin-LCNASGAHALQ
Description: ELISA on peptide-coated plate. Here is the method: as §1, §2

Experiment [4] has as its target T4, prostate stem cell antigen (PSCA) (human, UniProt O43653 12-83).
T4 sequence: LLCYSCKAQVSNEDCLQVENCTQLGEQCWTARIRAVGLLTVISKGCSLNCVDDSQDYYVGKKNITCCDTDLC
Put plainly: immunoprecipitation with VB1-213, in-solution digest, mass spectrometry. Here is the method:
A pre-clearing step using protein-G sepharose alone was the first step in the purification of the antigen prior to the addition of the antibody. In certain cases, pre-clearing was performed twice to add more stringency to the assay. A total of 50 μg of antibody was used as the precipitating agent in the mixture. The antigen-antibody mixtures were nutated overnight at 4° C. using buffer conditions that mimicked physiological conditions. Care was taken to ensure that protease inhibitors were used in every step of the antigen isolation process.
The extracted peptides were concentrated and desalted using μ-C18 columns and used for MS analysis. Two distinct proteins were identified, in all three cell lines, as “Mixture1”, consisting of HnRNPG+Prostate stem cell antigen (PSCA). HnRNPG and PSCA were identified as a “Mixture1”, each with 76% and 95% sequence coverage and a highly significant combined score of 413. The sequence coverage and peptides corresponding to PSCA are shown in FIGS. 18 and 19 and Table 7 (SEQ ID NO: 18 to 22). The peptides isolated by this method corresponding to HnRNPG as shown in Table 8 (SEQ ID NO: 72 to 110).

B1: VB1-213 monoclonal antibody (antibody, human IgG1, V domains shown)
VH: EVQLLESGGGLVQPGGSLRLSCAASGFTFRSYAMSWVRQAPGKGLEWVSTISGRGVTTYYADSVKGRFTISRDNSKNTLYLQMNSLRADDTALYYCAKDRTRYYGMDVWGQGTTVTVSS
VL: SYELTQPPSVSVSPGQTASITCSGNKLGDKYACWYQQKSGQSPVLVIYQDSKRPSGIPERFSGSNSGNTATLTISGTQALDEADYYCQAWDNSTAVFGGGTKLTVLG
notes: Human IgG1, lambda monoclonal antibody from a hybridoma (lymph node cells of an ovarian cancer patient fused with MFP-2); no constant regions for the IgG as tested
B1: binding in experiment [1] was put at a Kd of 627 nM. Moreover, the binding result was “no binding” in experiment [2], “no binding” in experiment [3] and “binds” in experiment [4].
